According to doi:10.1101/2025.11.08.687396 (bioRxiv, 2025):

T1: Ufd1-Npl4 (UN) complex (yeast (S. cerevisiae), UniProt P53044 1-361; P33755 1-580)
T1 construct: Ufd1 of yeast; Npl4 of yeast; The methods call the complex untagged; the plasmids are described as Ufd1 with an N-terminal His14-SUMO tag and Npl4 with a C-terminal His6 or FLAG-His6 tag; also called untagged Ufd1/Npl4 (UN) complex; source: bacterial expression
T1 sequence 1: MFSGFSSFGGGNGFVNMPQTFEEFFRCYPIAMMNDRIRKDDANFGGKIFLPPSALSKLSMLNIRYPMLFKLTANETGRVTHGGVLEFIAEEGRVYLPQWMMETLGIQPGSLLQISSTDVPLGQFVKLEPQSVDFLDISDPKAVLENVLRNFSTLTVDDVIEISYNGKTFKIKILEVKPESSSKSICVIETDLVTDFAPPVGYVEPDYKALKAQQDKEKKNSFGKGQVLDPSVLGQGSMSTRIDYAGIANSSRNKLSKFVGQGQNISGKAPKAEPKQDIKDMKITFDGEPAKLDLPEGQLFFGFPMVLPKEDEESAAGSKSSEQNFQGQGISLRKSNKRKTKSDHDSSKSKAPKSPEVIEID
T1 sequence 2: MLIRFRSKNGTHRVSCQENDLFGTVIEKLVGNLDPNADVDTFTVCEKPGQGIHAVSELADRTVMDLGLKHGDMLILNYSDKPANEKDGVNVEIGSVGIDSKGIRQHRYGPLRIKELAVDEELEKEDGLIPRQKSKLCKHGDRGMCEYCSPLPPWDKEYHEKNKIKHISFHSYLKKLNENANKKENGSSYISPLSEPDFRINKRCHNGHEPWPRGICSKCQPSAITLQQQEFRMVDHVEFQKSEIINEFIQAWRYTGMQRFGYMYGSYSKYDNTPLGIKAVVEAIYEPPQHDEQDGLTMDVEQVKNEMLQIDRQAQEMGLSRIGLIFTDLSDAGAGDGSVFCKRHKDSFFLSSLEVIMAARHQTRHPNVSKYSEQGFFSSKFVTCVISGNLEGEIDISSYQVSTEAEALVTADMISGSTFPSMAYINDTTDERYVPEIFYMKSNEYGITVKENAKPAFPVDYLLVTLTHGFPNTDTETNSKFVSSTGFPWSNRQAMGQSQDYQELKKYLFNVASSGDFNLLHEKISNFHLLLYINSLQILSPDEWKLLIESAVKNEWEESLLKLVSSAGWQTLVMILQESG

B1: UBXN7-SBP (natural protein, human, UniProt O94888 1-489, looked up)
chain: MAAHGGSAASSALKGLIQQFTTITGASESVGKHMLEACNNNLEMAVTMFLDGGGIAEEPSTSSASVSTVRPHTEEEVRAPIPQKQEILVEPEPLFGAPKRRRPARSIFDGFRDFQTETIRQEQELRNGGAIDKKLTTLADLFRPPIDLMHKGSFETAKECGQMQNKWLMINIQNVQDFACQCLNRDVWSNEAVKNIIREHFIFWQVYHDSEEGQRYIQFYKLGDFPYVSILDPRTGQKLVEWHQLDVSSFLDQVTGFLGEHGQLDGLSSSPPKKCARSESLIDASEDSQLEAAIRASLQETHFDSTQTKQDSRSDEESESELFSGSEEFISVCGSDEEEEVENLAKSRKSPHKDLGHRKEENRRPLTEPPVRTDPGTATNHQGLPAVDSEILEMPPEKADGVVEGIDVNGPKAQLMLRYPDGKREQITLPEQAKLLALVKHVQSKGYPNERFELLTNFPRRKLSHLDYDITLQEAGLCPQETVFVQERN
notes: human UBXN7, wild type; also called SBP-tagged version of UBXN7; homolog of Ubx5; source: E. coli BL21 CodonPlus (DE3) RIPL, purified (Ni-NTA, SEC); not shown: SBP, C-terminal, kept
B2: Yod1-C160S (enzyme, human, UniProt Q5VVQ6 1-348, looked up)
chain: MFGPAKGRHFGVHPAPGFPGGVSQQAAGTKAGPAGAWPVGSRTDTMWRLRCKAKDGTHVLQGLSSRTRVRELQGQIAAITGIAPGGQRILVGYPPECLDLSNGDTILEDLPIQSGDMLIIEEDQTRPRSSPAFTKRGASSYVRETLPVLTRTVVPADNSSLFTSVYYVVEGGVLNPACAPEMRRLIAQIVASDPDFYSEAILGKTNQEYCDWIKRDDTWGGAIEISILSKFYQCEICVVDTQTVRIDRFGEDAGYTKRVLLIYDGIHYDPLQRNFPDPDTPPLTIFSSNDDIVLVQALELADEARRRRQFTDVNRFTLRCMVCQKGLTGQAEAREHAKETGHTNFGEV
notes: human deubiquitinating enzyme Yod1 with C160S; also called homolog of Otu1; source: E. coli BL21 CodonPlus (DE3) RIPL, purified (Ni-NTA, SEC)
B3: Otu1-C120S-FLAG (enzyme, S. cerevisiae, UniProt P43558 1-301, looked up)
chain: MKLKVTGAGINQVVTLKQDATLNDLIEHINVDVKTMRFGYPPQRINLQGEDASLGQTQLDELGINSGEKITIESSDSNESFSLPPPQPKPKRVLKSTEMSIGGSGENVLSVHPVLDDNSSLFHAIAYGIFKQDSVRDLREMVSKEVLNNPVKFNDAILDKPNKDYAQWILKMESWGGAIEIGIISDALAVAIYVVDIDAVKIEKFNEDKFDNYILILFNGIHYDSLTMNEFKTVFNKNQPESDDVLTAALQLASNLKQTGYSFNTHKAQIKCNTCQMTFVGEREVARHAESTGHVDFGQNR
notes: deubiquitinating enzyme Otu1 of yeast with C120S; pET28: N-terminal His6-tag, TEV-protease cleavage site, then a FLAG tag; source: E. coli BL21 CodonPlus (DE3) RIPL, purified (Ni-NTA, SEC); not shown: FLAG, N-terminal, kept

What was measured:
Conditions in all cases: both partners purified
[1] = molecular target: T2, human Npl4 (human, UniProt Q8TAT6 1-608); test: pull-down; UBXN7-SBP on streptavidin agarose with p97, human UN, Yod1-C160S and Ub(n)-TAIL, 1 μM each, SEC buffer, 5 mM ATPγS, 1 h, 4°C, eluted with 2 mM biotin; Coomassie-blue staining
T2 construct: human Npl4; Used as the human UN complex with hUfd1; also called hNpl4; Npl4 of the human UN complex; source: purified
T2 sequence (Q8TAT6 whole entry): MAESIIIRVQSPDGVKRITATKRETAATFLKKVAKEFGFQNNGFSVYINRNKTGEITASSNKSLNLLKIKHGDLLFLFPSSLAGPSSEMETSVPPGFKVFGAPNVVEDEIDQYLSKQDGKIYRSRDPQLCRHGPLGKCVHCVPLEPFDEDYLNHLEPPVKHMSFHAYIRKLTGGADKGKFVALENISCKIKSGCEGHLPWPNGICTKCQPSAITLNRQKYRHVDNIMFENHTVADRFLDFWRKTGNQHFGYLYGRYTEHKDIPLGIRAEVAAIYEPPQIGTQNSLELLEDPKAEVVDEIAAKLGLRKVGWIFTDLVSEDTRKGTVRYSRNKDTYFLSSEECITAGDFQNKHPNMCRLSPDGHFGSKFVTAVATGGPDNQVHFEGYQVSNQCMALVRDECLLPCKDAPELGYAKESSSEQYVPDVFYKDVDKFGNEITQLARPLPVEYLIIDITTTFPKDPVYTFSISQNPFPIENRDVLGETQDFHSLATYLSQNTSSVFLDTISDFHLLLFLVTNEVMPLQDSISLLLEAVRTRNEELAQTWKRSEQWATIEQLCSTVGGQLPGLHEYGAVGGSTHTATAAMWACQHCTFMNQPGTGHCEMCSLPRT

[2] = molecular target: T3, human p97 ATPase (human, UniProt P55072 1-806); test: as above
T3 construct: human p97 (VCP), wild type; pET28 with N-terminal His6-tag and a TEV-protease cleavage site; also called VCP; homolog of Cdc48; source: E. coli BL21 CodonPlus (DE3) RIPL, purified (Ni-NTA, SEC)
T3 sequence (P55072 whole entry): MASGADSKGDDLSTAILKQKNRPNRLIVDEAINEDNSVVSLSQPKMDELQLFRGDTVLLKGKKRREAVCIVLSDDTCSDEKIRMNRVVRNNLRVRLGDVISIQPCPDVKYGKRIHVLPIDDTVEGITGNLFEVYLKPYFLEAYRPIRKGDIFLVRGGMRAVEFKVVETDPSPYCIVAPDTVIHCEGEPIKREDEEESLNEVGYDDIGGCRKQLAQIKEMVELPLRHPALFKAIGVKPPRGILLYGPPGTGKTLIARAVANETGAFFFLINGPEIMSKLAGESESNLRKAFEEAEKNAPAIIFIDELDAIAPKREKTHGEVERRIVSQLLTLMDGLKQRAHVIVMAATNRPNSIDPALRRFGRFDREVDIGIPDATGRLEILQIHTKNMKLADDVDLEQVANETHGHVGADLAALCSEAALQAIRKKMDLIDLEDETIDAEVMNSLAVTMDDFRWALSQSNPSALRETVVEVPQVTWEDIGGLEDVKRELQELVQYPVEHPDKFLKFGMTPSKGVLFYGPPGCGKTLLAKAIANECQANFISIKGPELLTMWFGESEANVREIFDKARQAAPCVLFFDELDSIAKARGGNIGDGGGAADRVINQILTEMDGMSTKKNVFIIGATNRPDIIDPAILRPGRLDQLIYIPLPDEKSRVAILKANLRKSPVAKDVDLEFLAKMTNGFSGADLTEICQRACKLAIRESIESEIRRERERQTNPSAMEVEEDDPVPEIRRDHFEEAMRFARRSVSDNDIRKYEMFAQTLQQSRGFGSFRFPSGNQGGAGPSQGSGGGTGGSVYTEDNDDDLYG

[3] = molecular target: B1; test: as above
[4] = molecular target: T4, Cdc48 (yeast (S. cerevisiae), UniProt P25694 1-835); test: pull-down; Otu1-C120S-FLAG on anti-FLAG M2 agarose with Cdc48, UN and Ub(n)-TAIL, with or without Ubx5, 1 μM each, SEC buffer, 5 mM ATPγS, 1 h, 4°C; fluorescence scanning and Coomassie-blue staining
T4 construct: Cdc48 ATPase of yeast, wild type; pET28 with N-terminal His6-tag and a TEV-protease cleavage site; also called Cdc48 ATPase; wild-type (WT) Cdc48; source: E. coli BL21 CodonPlus (DE3) RIPL, purified (Ni-NTA, SEC)
T4 sequence (P25694 whole entry): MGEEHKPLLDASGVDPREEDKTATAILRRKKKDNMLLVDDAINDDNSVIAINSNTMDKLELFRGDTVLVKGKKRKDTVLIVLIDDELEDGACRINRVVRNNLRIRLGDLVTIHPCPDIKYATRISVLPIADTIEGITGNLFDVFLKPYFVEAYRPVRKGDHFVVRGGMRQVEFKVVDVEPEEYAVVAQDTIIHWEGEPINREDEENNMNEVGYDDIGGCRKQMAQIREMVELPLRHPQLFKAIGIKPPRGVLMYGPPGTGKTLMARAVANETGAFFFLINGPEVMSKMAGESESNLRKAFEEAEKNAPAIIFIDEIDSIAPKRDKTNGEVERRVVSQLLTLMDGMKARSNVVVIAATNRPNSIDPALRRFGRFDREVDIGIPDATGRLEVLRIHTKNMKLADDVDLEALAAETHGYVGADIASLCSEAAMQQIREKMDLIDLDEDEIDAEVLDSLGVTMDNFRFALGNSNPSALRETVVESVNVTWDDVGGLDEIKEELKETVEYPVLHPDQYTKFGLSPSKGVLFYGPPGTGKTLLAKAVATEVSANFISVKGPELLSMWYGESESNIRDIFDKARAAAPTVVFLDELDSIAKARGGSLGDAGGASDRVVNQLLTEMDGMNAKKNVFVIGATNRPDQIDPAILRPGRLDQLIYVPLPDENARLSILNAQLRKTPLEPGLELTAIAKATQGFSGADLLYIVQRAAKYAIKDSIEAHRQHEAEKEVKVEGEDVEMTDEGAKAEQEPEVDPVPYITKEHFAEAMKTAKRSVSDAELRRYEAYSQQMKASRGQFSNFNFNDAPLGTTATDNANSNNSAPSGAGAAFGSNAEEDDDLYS

[5] = molecular target: T1, Ufd1-Npl4 (UN) complex; test: as above

B1
binding result [1]: binds | binding result [2]: binds

B2
binding result [3]: binds

B3
binding result [4]: binds | binding result [5]: binds
